Assay results as given in US20250339569A1 (3B PHARMACEUTICALS, published 2025).
Starred links: 1 amine or outer side, 2 acyl side, 3 side chain; linkers in the order of their positions; H or OH if unused. Positions of bridges follow the written chain, without caps; N, C: chain ends. Non-standard residues stand in square brackets, D forms with d. Groups on a side chain read outwards from the residue. Primed or numbered codes have the meaning given here. No end group written: not given here. *: point of attachment. APAc″ = 2-(4-(amino)piperidin-1-yl)acetic acid, NC1CCN(CC(=O)*)CC1; DOTA = O=C(O)CN1CCN(CC(=O)O)CCN(CC(=O)*)CCN(CC(=O)O)CC1; mXylylene = c1cc(C[*:1])cc(C[*:2])c1; NMeY = CN[C@@H](Cc1ccc(O)cc1)C(=O)O; APAc = not defined here; Apr = not defined here; AEEA = NCCOCCOCC(=O)O

What follows are binders tested against human carbonic anhydrase 9 (CAIX) (human, UniProt Q16790 38-459) (assay: FACS competition on HT-29 cells against tracer 3BP-2776; pIC50 category A = pIC50 >8.0).
Description: CAIX-expressing human HT-29 colorectal cancer cells (DSMZ, RRID: CVCL_0320) were cultured in McCoys's 5A modified medium (Biochrom, #F1015) including 10% fetal calf serum (FCS), 2 mM L-glutamine, 100 U/ml penicillin and 100 μg/mL streptomycin. Cells were detached with Accutase (Biolegend, #423201) and washed in FACS buffer (PBS including 1% FCS). Cells were diluted in FACS buffer to a final concentration of 500.000 cells per ml. 200 μL of the cell suspension were transferred to a u-shaped non-binding 96-well plate (Greiner) and cells were washed in ice-cold FACS buffer.
When biotinylated compounds were used an additional incubation step with 1 μg/mL APC-Streptavidin (Miltenyi; #130-106-791) in 50 μL FACS buffer for 30 minutes on ice was performed.
Cells were washed twice with ice-cold FACS buffer and analyzed in an Attune NxT flow cytometer (Thermo Fisher). Median fluorescence intensities (MFI) of the APC/Cy5-channel were calculated by Attune NxT software.

| Binder | pIC50 |
| --- | --- |
| {DOTA-APAc″}-VYCE[dP]DWLTWAC-NH2 (linker 3-12 via mXylylene, also called DOTA-APAc-Val-Tyr-[Cys(3MeBn)-Glu-pro-Asp-Trp-Leu-Thr-Trp-Ala-Cys]-NH2) [3BP-3432] | > 8 pic50 |
| Ac-VYCE[dP]DWLTWSC-NH2 (linker 3-12 via mXylylene; SMILES CC(=O)N[C@H](C(=O)N[C@@H](Cc1ccc(O)cc1)C(=O)N[C@H]1CSCc2cccc(c2)CSC[C@@H](C(N)=O)NC(=O)[C@H](CO)NC(=O)[C@H](Cc2c[nH]c3ccccc23)NC(=O)[C@H]([C@@H](C)O)NC(=O)[C@H](CC(C)C)NC(=O)[C@H](Cc2c[nH]c3ccccc23)NC(=O)[C@H](CC(=O)O)NC(=O)[C@H]2CCCN2C(=O)[C@H](CCC(=O)O)NC1=O)C(C)C, also called Ac-Val-Tyr-[Cys(3MeBn)-Glu-pro-Asp-Trp-Leu-Thr-Trp-Ser-Cys]-NH2) [3BP-3565] | > 8 pic50 |
| {DOTA-APAc}-VYCE[dP]DFLTWSC-NH2 (linker 3-12 via mXylylene; reading uncertain, also called DOTA-APAc-Val-Tyr-[Cys(3MeBn)-Glu-pro-Asp-Phe-Leu-Thr-Trp-Ser-Cys]-NH2) [3BP-3596] | > 8 pic50 |
| {DOTA-APAc}-VYCE[dP]DWLTWRC-NH2 (linker 3-12 via mXylylene; reading uncertain, also called DOTA-APAc-Val-Tyr-[Cys(3MeBn)-Glu-pro-Asp-Trp-Leu-Thr-Trp-Arg-Cys]-NH2) [3BP-3599] | > 8 pic50 |
| {DOTA-APAc}-VYCE[dP]DWLHWSC-NH2 (linker 3-12 via mXylylene; reading uncertain, also called DOTA-APAc-Val-Tyr-[Cys(3MeBn)-Glu-pro-Asp-Trp-Leu-His-Trp-Ser-Cys]-NH2) [3BP-3597] | > 8 pic50 |
| Ac-VSCE[dP]DWLTWSC-NH2 (linker 3-12 via mXylylene; SMILES CC(=O)N[C@H](C(=O)N[C@@H](CO)C(=O)N[C@H]1CSCc2cccc(c2)CSC[C@@H](C(N)=O)NC(=O)[C@H](CO)NC(=O)[C@H](Cc2c[nH]c3ccccc23)NC(=O)[C@H]([C@@H](C)O)NC(=O)[C@H](CC(C)C)NC(=O)[C@H](Cc2c[nH]c3ccccc23)NC(=O)[C@H](CC(=O)O)NC(=O)[C@H]2CCCN2C(=O)[C@H](CCC(=O)O)NC1=O)C(C)C, also called Ac-Val-Ser-[Cys(3MeBn)-Glu-pro-Asp-Trp-Leu-Thr-Trp-Ser-Cys]-NH2) [3BP-3571] | > 8 pic50 |
| {DOTA-APAc}-VYCE[dP]DWLTWSC-NH2 (linker 3-12 via mXylylene; reading uncertain, also called DOTA-APAc-Val-Tyr-[Cys(3MeBn)-Glu-pro-Asp-Trp-Leu-Thr-Trp-Ser-Cys]-NH2) [3BP-3583] | > 8 pic50 |
| Ac-VFCE[dP]DWLTWEC-NH2 (linker 3-12 via mXylylene; not fully specified (residue 11); also: indium complexed by DOTA, also called Ac-Val-Phe-[Cys(3MeBn)-Glu-pro-Asp-Trp-Leu-Thr-Trp-Glu(NH-Apr-O2Oc-InDOTA′)-Cys]-NH2) [3BP-3844] | > 8 pic50 |
| Ac-VRCE[dP]DWLTWE([Apr-AEEA-DOTA])C-NH2 (linker 3-12 via 3MeBn; reading uncertain, also called Ac-Val-Arg-[Cys(3MeBn)-Glu-pro-Asp-Trp-Leu-Thr-Trp-Glu(NH-Apr-O2Oc-DOTA′)-Cys]-NH2) [3BP-3734] | > 8 pic50 |
| Ac-SYCE[dP]DWLTWSC-NH2 (linker 3-12 via mXylylene; SMILES CC(=O)N[C@@H](CO)C(=O)N[C@@H](Cc1ccc(O)cc1)C(=O)N[C@H]1CSCc2cccc(c2)CSC[C@@H](C(N)=O)NC(=O)[C@H](CO)NC(=O)[C@H](Cc2c[nH]c3ccccc23)NC(=O)[C@H]([C@@H](C)O)NC(=O)[C@H](CC(C)C)NC(=O)[C@H](Cc2c[nH]c3ccccc23)NC(=O)[C@H](CC(=O)O)NC(=O)[C@H]2CCCN2C(=O)[C@H](CCC(=O)O)NC1=O, also called Ac-Ser-Tyr-[Cys(3MeBn)-Glu-pro-Asp-Trp-Leu-Thr-Trp-Ser-Cys]-NH2) [3BP-3566] | > 8 pic50 |
| VYCE[dP]DWLTWSC-NH2 (linker 3-12 via 3MeBn; not fully specified (N-terminus); also: europium complexed by DOTA, also called EuDOTA-APAc-Val-Tyr-[Cys(3MeBn)-Glu-pro-Asp-Trp-Leu-Thr-Trp-Ser-Cys]-NH2) [3BP-3784] | > 8 pic50 |
| Ac-TYCE[dP]DWLTWSC-NH2 (linker 3-12 via mXylylene; SMILES CC(=O)N[C@H](C(=O)N[C@@H](Cc1ccc(O)cc1)C(=O)N[C@H]1CSCc2cccc(c2)CSC[C@@H](C(N)=O)NC(=O)[C@H](CO)NC(=O)[C@H](Cc2c[nH]c3ccccc23)NC(=O)[C@H]([C@@H](C)O)NC(=O)[C@H](CC(C)C)NC(=O)[C@H](Cc2c[nH]c3ccccc23)NC(=O)[C@H](CC(=O)O)NC(=O)[C@H]2CCCN2C(=O)[C@H](CCC(=O)O)NC1=O)[C@@H](C)O, also called Ac-Thr-Tyr-[Cys(3MeBn)-Glu-pro-Asp-Trp-Leu-Thr-Trp-Ser-Cys]-NH2) [3BP-3567] | > 8 pic50 |
| Ac-VYCE[dP]DWLTWAC (linker 3-12 via mXylylene; not fully specified (C-terminus), The printed formula ends at '-Ape-NH'; also called Ac-Val-Tyr-[Cys(3MeBn)-Glu-pro-Asp-Trp-Leu-Thr-Trp-Ala-Cys]-Mamb-Ape-NH) [3BP-3433] | > 8 pic50 |
| Ac-IYCE[dP]DWLTWSC-NH2 (linker 3-12 via mXylylene; SMILES CC[C@H](C)[C@H](NC(C)=O)C(=O)N[C@@H](Cc1ccc(O)cc1)C(=O)N[C@H]1CSCc2cccc(c2)CSC[C@@H](C(N)=O)NC(=O)[C@H](CO)NC(=O)[C@H](Cc2c[nH]c3ccccc23)NC(=O)[C@H]([C@@H](C)O)NC(=O)[C@H](CC(C)C)NC(=O)[C@H](Cc2c[nH]c3ccccc23)NC(=O)[C@H](CC(=O)O)NC(=O)[C@H]2CCCN2C(=O)[C@H](CCC(=O)O)NC1=O, also called Ac-Ile-Tyr-[Cys(3MeBn)-Glu-pro-Asp-Trp-Leu-Thr-Trp-Ser-Cys]-NH2) [3BP-3568] | > 8 pic50 |
| Ac-VYCE[dP]DWLTWEC-NH2 (linker 3-12 via mXylylene; not fully specified (residue 11); also: indium complexed by DOTA, also called Ac-Val-Tyr-[Cys(3MeBn)-Glu-pro-Asp-Trp-Leu-Thr-Trp-Glu(NH-Apr-O2Oc-InDOTA′)-Cys]-NH2) [3BP-3843] | > 8 pic50 |
| Ac-VRCE[dP]DWLTWSC-NH2 (linker 3-12 via mXylylene; SMILES CC(=O)N[C@H](C(=O)N[C@@H](CCCNC(=N)N)C(=O)N[C@H]1CSCc2cccc(c2)CSC[C@@H](C(N)=O)NC(=O)[C@H](CO)NC(=O)[C@H](Cc2c[nH]c3ccccc23)NC(=O)[C@H]([C@@H](C)O)NC(=O)[C@H](CC(C)C)NC(=O)[C@H](Cc2c[nH]c3ccccc23)NC(=O)[C@H](CC(=O)O)NC(=O)[C@H]2CCCN2C(=O)[C@H](CCC(=O)O)NC1=O)C(C)C, also called Ac-Val-Arg-[Cys(3MeBn)-Glu-pro-Asp-Trp-Leu-Thr-Trp-Ser-Cys]-NH2) [3BP-3588] | > 8 pic50 |
| Ac-VFCE[dP]DWLTWSC-NH2 (linker 3-12 via mXylylene; SMILES CC(=O)N[C@H](C(=O)N[C@@H](Cc1ccccc1)C(=O)N[C@H]1CSCc2cccc(c2)CSC[C@@H](C(N)=O)NC(=O)[C@H](CO)NC(=O)[C@H](Cc2c[nH]c3ccccc23)NC(=O)[C@H]([C@@H](C)O)NC(=O)[C@H](CC(C)C)NC(=O)[C@H](Cc2c[nH]c3ccccc23)NC(=O)[C@H](CC(=O)O)NC(=O)[C@H]2CCCN2C(=O)[C@H](CCC(=O)O)NC1=O)C(C)C, also called Ac-Val-Phe-[Cys(3MeBn)-Glu-pro-Asp-Trp-Leu-Thr-Trp-Ser-Cys]-NH2) [3BP-3570] | > 8 pic50 |
| Ac-V[NMeY]CE[dP]DWLTWSC-NH2 (linker 3-12 via mXylylene; SMILES CC(=O)N[C@H](C(=O)N(C)[C@@H](Cc1ccc(O)cc1)C(=O)N[C@H]1CSCc2cccc(c2)CSC[C@@H](C(N)=O)NC(=O)[C@H](CO)NC(=O)[C@H](Cc2c[nH]c3ccccc23)NC(=O)[C@H]([C@@H](C)O)NC(=O)[C@H](CC(C)C)NC(=O)[C@H](Cc2c[nH]c3ccccc23)NC(=O)[C@H](CC(=O)O)NC(=O)[C@H]2CCCN2C(=O)[C@H](CCC(=O)O)NC1=O)C(C)C, also called Ac-Val-Nmy-[Cys(3MeBn)-Glu-pro-Asp-Trp-Leu-Thr-Trp-Ser-Cys]-NH2) [3BP-3589] | > 8 pic50 |
| Ac-SYCE[dP]DWLTWE([Apr-AEEA-DOTA])C-NH2 (linker 3-12 via 3MeBn; reading uncertain, also called Ac-Ser-Tyr-[Cys(3MeBn)-Glu-pro-Asp-Trp-Leu-Thr-Trp-Glu(NH-Apr-O2Oc-DOTA′)-Cys]-NH2) [3BP-3732] | > 8 pic50 |
| Ac-VFCE[dP]DWLTWE([Apr-AEEA-DOTA])C-NH2 (linker 3-12 via 3MeBn; reading uncertain, also called Ac-Val-Phe-[Cys(3MeBn)-Glu-pro-Asp-Trp-Leu-Thr-Trp-Glu(NH-Apr-O2Oc-DOTA′)-Cys]-NH2) [3BP-3733] | > 8 pic50 |
| Ac-VYCE[dP]DWLTWAC (linker 3-12 via mXylylene; not fully specified (C-terminus), also called Ac-Val-Tyr-[Cys(3MeBn)-Glu-pro-Asp-Trp-Leu-Thr-Trp-Ala-Cys]-Ape-NH-DOTA′) [3BP-3434] | > 8 pic50 |
| {DOTA-APAc}-VYCE[dP]SWLTWSC-NH2 (linker 3-12 via mXylylene; reading uncertain, also called DOTA-APAc-Val-Tyr-[Cys(3MeBn)-Glu-pro-Ser-Trp-Leu-Thr-Trp-Ser-Cys]-NH2) [3BP-3595] | > 8 pic50 |
| Ac-VYCE[dP]DWLTWE([Apr-DOTA])C-NH2 (linker 3-12 via mXylylene; reading uncertain, also called Ac-Val-Tyr-[Cys(3MeBn)-Glu-pro-Asp-Trp-Leu-Thr-Trp-Glu(NH-Apr-DOTA′)-Cys]-NH2) [3BP-3478] | > 8 pic50 |
| Ac-VYCE[dP]DWLTWE([Apr-AEEA-DOTA])C-NH2 (linker 3-12 via mXylylene; reading uncertain, also called Ac-Val-Tyr-[Cys(3MeBn)-Glu-pro-Asp-Trp-Leu-Thr-Trp-Glu(NH-Apr-O2Oc-DOTA′)-Cys]-NH2) [3BP-3479] | > 8 pic50 |
| Ac-SRCE[dP]DWLTWE([Apr-AEEA-DOTA])C-NH2 (linker 3-12 via 3MeBn; reading uncertain, also called Ac-Ser-Arg-[Cys(3MeBn)-Glu-pro-Asp-Trp-Leu-Thr-Trp-Glu(NH-Apr-O2Oc-DOTA′)-Cys]-NH2) [3BP-3735] | > 8 pic50 |
| Ac-VRCE[dP]DWLTWEC-NH2 (linker 3-12 via mXylylene; not fully specified (residue 11); also: indium complexed by DOTA, also called Ac-Val-Arg-[Cys(3MeBn)-Glu-pro-Asp-Trp-Leu-Thr-Trp-Glu(NH-Apr-O2Oc-InDOTA′)-Cys]-NH2) [3BP-3845] | > 8 pic50 |
